Data published in publication PMC11819763, “Activity of Potassium Channel BmK-NSPK Inhibitor Regulated by Basic Amino Acid Residues: Novel Insight into the Diverse Peptide Pharmacology” (Molecules, 2025).

Target: human Kv1.3 potassium channel (human) (UniProt P22001)
Sequence (P22001 whole entry): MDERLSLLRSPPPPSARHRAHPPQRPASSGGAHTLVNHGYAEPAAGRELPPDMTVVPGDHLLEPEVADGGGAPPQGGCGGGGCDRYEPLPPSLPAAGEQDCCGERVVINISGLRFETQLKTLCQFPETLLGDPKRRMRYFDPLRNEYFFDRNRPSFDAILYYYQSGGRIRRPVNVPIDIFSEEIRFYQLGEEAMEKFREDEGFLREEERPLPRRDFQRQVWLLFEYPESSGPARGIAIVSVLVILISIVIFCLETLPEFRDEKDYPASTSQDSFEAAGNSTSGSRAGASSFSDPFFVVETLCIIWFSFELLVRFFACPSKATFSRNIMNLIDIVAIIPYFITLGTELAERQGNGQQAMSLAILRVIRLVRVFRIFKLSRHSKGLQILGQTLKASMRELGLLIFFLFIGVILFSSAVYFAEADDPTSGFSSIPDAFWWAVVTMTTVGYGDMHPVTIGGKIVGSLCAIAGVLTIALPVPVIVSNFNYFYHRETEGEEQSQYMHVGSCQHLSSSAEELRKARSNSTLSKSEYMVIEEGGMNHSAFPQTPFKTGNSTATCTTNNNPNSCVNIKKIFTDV

KTX-3 peptide, sequence (P59290 whole entry): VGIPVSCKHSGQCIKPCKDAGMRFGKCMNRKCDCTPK
KTX-2 peptide, sequence (P45696 23-59): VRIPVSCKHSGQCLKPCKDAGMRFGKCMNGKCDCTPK

Substance | IC50 of inhibition of hKv1.3 channel currents (whole-cell patch clamp, HEK293T) | inhibition of hKv1.3 channel currents by 1 μM peptide (whole-cell patch clamp, HEK293T)
KTX-2 peptide (from UniProt P45696 23-59) | 0.32 nM | 94.9%
KTX-3 peptide (from UniProt P59290 1-37) | 0.46 nM | 91.6%
